Reference: patent publication US11453711B2, “Fusion proteins of GLP-1 and GDF15 and conjugates thereof” (BEIJING QL BIOPHARMACEUTICAL CO., LTD., priority 2019, dated 2022)

Tests used:
[1] = Efficacy in db/db mice: body weight, food intake, glucose, biomarkers, daily sc 14 days; format: in vivo
Procedure: FIGS. 4A-4D show In vivo efficacy in db/db mice. To evaluate the body weight, food intake and glucose effects of the fusion proteins, 8 week old male db/db mice were dosed everyday subcutaneously with 30 nmol/kg protein for 14 days. […] Compared to Vehicle control: ***, p<0.001. Data are expressed as mean values and standard error (SEM) for FIGS. 4A, 4B and 4D. n=5 for each treatment group. For FIG. 4C, a pooled food intake was measured for each treatment group.
FIGS. 5A-5F show In vivo efficacy in db/db mice. To evaluate the body weight, food intake and glucose effects of the fusion proteins, 8 week old male db/db mice were dosed everyday subcutaneously with different concentrations of proteins for 14 days. FIGS. 5A and 5B show body weight loss upon protein treatments from Day1 to Day15. […] Compared to Vehicle control: ***, p<0.001; **, p<0.01; *, p<0.05; ns, non-statistically significant; FIGS. 5D and 5E show cumulative food intake with protein treatments from Day1 to Day15. […] Compared to Vehicle control: ***, p<0.001**, p<0.01; *, p<0.05; ns, non-statistically significant. Data are expressed as mean values and standard error (SEM) for FIGS. 5A, 5B, 5C and 5F. n=5 for each treatment group. For FIGS. 5D and 5E, a pooled food intake was measured for each treatment group.
FIGS. 8A-8I show In vivo efficacy in db/db mice. To evaluate the body weight, food intake and glucose effects of the fusion proteins, 8 week old male db/db mice were dosed everyday subcutaneously with different concentrations of proteins for 14 days. […] FIGS. 8D-8F show body weight loss upon dose titrations of fusion protein conjugates. […] Data are expressed as mean values and standard error (SEM) for FIGS. 8A and 8C-I. n=5 for each treatment group. For FIG. 8B, a pooled food intake was measured for each treatment group.
Selected fusion protein conjugates are assessed in disease animal models (DIO mice, db/db mice, etc.) to determine body weight, food intake, glucose efficacy with dose responses. Some biomarkers are also measured, including fasting insulin, plasma triglyceride, cholesterol, liver triglyceride, and inflammatory biomarkers (ALT, AST and CRP).
8 week old male db/db mice were injected everyday subcutaneously with designated proteins for 14 days. Age matched lean mice were used as control. Food intake and body weight were measured daily and five animals were used for each treatment group. Fasting glucose were tested on designated days as shown in each figure. Body weight was monitored for each individual animal, but food intake for each group animals was measured together. Day 1 and Day 14 are first day and last day of molecule dosage. % BW loss=100*(BW on Day n-BW on Day 1)/(BW on Day 1). Cumulative food intake on Day n represents sum of food intake from Day 1 to Day n. Terminal blood was collected and EDTA-2K plasma was prepared and frozen at −80° C. for biomarker measurement. Liver was also collected and frozen in liquid nitrogen and store at −80° C. Data are indicated as mean values and standard error (SEM) or pooled values. Statistical analysis was performed by One-way ANOVA.

[2] = Stability study: SEC-HPLC (% HMW, % LMW), RP-UPLC and LC/MS after 2 weeks storage; format: physicochemical
Procedure: To test the stability, the different conjugated fusion proteins were formulated in buffers with different compositions (pH6, 7, 7.4 and 8.0) and stored at 4° C. and 37° C. or 40° C. for 2 weeks. The % High Molecular Weight aggregate (HMW) and % Low Molecular Weight (LMW) were analyzed by size exclusion chromatography (SEC)-HPLC. The concentration and modifications were analyzed by reverse phase (RP)-UPLC and LC/MS.

[3] = PK study in non-human primates, single sc dose 5 nmol/kg, plasma ELISA; settings: monkey, single sc dose 5 nmol/kg
Procedure: Plasma samples were collected pre-dose (−5 min), 2 hr, 4 hr, 6 hr, 8 hr, 24 hr, 48 hr, 72 hr, 96 hr, 120 hr, 144 hr, 216 hr, 288 hr, 360 hr, 432 hr and 504 hr after the injection. The concentrations of the fusion protein conjugates in the plasma were measured by an ELISA assay which has immunoreactivity towards both GDF15 and intact N-terminal of GLP-1. Based on the graph showing plasma concentration of each protein versus time after subcutaneous injection, the pharmacokinetic parameters (including Tmax, Cmax, T1/2, AUC) were calculated by WinNonlin software.

[4] = Efficacy in spontaneously obese cynomolgus monkeys, sc every three days for 49 days; format: in vivo; settings: obese monkeys, 1, 3 and 10 nmol/kg sc every three days
Procedure: FIGS. 10A-10B show In vivo efficacy in obese monkey. Naïve male spontaneously obese cynomolgus monkeys were injected every three days subcutaneously with designated protein MLC093 with different concentrations for 49 days.
Naïve male spontaneously obese cynomolgus monkeys with BMI>40 kg/m^2 were injected every three days subcutaneously with designated protein MLC093 for 49 days. Body weight was measured once a week and food intake was measured daily for each monkey. Six animals were used for vehicle or MLC093 1 nmol/kg treamment group and seven animals were used for MLC093 3 nmol/kg or MLC093 10 nmol/kg treamment group. Day 1 and Day 49 are first day and last day of molecule dosage. % BW loss=100*(BW on Day n-BW on Day 1)/(BW on Day 1). Cumulative food intake on Day n represents sum of food intake from Day 1 to Day n. Data are indicated as mean values and standard error (SEM) or pooled values.

[5] = Pharmacokinetic measurement in mouse, single sc dose 30 nmol/kg, plasma ELISA
[6] = 30 nmol/kg, FIG. 8A-C, versus Semaglutide, Tirzepatide and MLC014

B1: MLC093: fusion polypeptide SEQ ID NO: 381 conjugated with Moiety B at 33C of Linker (conjugate)
chain: HGEGTFTSDVSSYLEEQAAKEFIAWLVRGGGGAQPGAQPGAQPGAQPGAQPGAQPGAQPGAQPCQEPGAQPGQEPGAQPGQEPGAQPGQEPGAQPGQEPGAQPGQEPGAQPARQGDHCPLGPGRCCRLHTVRASLEDLGWADWVLSPREVQVTMCIGACPSQFRAANLHAQIKTSLHRLKPDTVPAPCCVPASYNPMVLIQKTDTGVSLQTYDDLLAKDCHCI
modifications: Moiety B conjugated at linker Cys33
body weight loss [1, 6]: more body weight loss, food intake suppression and glycemic control | food intake suppression [1, 6]: more body weight loss, food intake suppression and glycemic control | glycemic control [1, 6]: more body weight loss, food intake suppression and glycemic control | liver triglyceride content ([1]; Day 15, FIG. 8I): a trend in reducing liver triglyceride content | efficacy ([1]; FIG. 8 study): better efficacy than Semaglutide and GDF15 derivative (MLC014) | plasma triglyceride concentration ([1]; terminal plasma Day 15, FIG. 8G): induced the reduction | plasma ALT concentration ([1]; terminal plasma Day 15, FIG. 8H): induced the reduction | HMW % ([2]; 4.65 mg/mL at 4° C., Day 0): 0% | LMW % ([2]; 4.65 mg/mL at 4° C., Day 0): 0.43% | Main peak % ([2]; 4.65 mg/mL at 4° C., Day 0): 99.56% | HMW % ([2]; 4.65 mg/mL at 4° C., Day 7): 0% | LMW % ([2]; 4.65 mg/mL at 4° C., Day 7): 0.51% | Main peak % ([2]; 4.65 mg/mL at 4° C., Day 7): 99.46% | HMW % ([2]; 4.65 mg/mL at 4° C., Day 14): 0% | LMW % ([2]; 4.65 mg/mL at 4° C., Day 14): 0.39% | Main peak % ([2]; 4.65 mg/mL at 4° C., Day 14): 99.6% | HMW % ([2]; 4.65 mg/mL at 37° C., Day 0): 0% | LMW % ([2]; 4.65 mg/mL at 37° C., Day 0): 0.43% | Main peak % ([2]; 4.65 mg/mL at 37° C., Day 0): 99.56% | HMW % ([2]; 4.65 mg/mL at 37° C., Day 7): 0.53% | LMW % ([2]; 4.65 mg/mL at 37° C., Day 7): 0.56% | Main peak % ([2]; 4.65 mg/mL at 37° C., Day 7): 98.86% | HMW % ([2]; 4.65 mg/mL at 37° C., Day 14): 0.8% | LMW % ([2]; 4.65 mg/mL at 37° C., Day 14): 0.53% | Main peak % ([2]; 4.65 mg/mL at 37° C., Day 14): 98.6% | HMW % ([2]; 20 mg/mL at 4° C., Day 0): 0% | LMW % ([2]; 20 mg/mL at 4° C., Day 0): 0.38% | Main peak % ([2]; 20 mg/mL at 4° C., Day 0): 99.6% | HMW % ([2]; 20 mg/mL at 4° C., Day 7): 0% | LMW % ([2]; 20 mg/mL at 4° C., Day 7): 0.49% | Main peak % ([2]; 20 mg/mL at 4° C., Day 7): 99.49% | HMW % ([2]; 20 mg/mL at 4° C., Day 14): 0% | LMW % ([2]; 20 mg/mL at 4° C., Day 14): 0.44% | Main peak % ([2]; 20 mg/mL at 4° C., Day 14): 99.24% | HMW % ([2]; 20 mg/mL at 37° C., Day 0): 0% | LMW % ([2]; 20 mg/mL at 37° C., Day 0): 0.38% | Main peak % ([2]; 20 mg/mL at 37° C., Day 0): 99.6% | HMW % ([2]; 20 mg/mL at 37° C., Day 7): 1.03% | LMW % ([2]; 20 mg/mL at 37° C., Day 7): 0.53% | Main peak % ([2]; 20 mg/mL at 37° C., Day 7): 98.38% | HMW % ([2]; 20 mg/mL at 37° C., Day 14): 1.81% | LMW % ([2]; 20 mg/mL at 37° C., Day 14): 0.55% | Main peak % ([2]; 20 mg/mL at 37° C., Day 14): 97.64% | HMW % ([2]; 20 mg/mL at 40° C., Day 0): 0.56% | LMW % ([2]; 20 mg/mL at 40° C., Day 0): 0.54% | Main peak % ([2]; 20 mg/mL at 40° C., Day 0): 98.83% | HMW % ([2]; 20 mg/mL at 40° C., Day 14): 2.26% | LMW % ([2]; 20 mg/mL at 40° C., Day 14): 0.84% | Main peak % ([2]; 20 mg/mL at 40° C., Day 14): 96.76% | physical and chemical stability ([2]; 4° C., 37° C. and 40° C., 2 weeks): high physical and chemical stability | AUC0-96 h [3]: 3.843 µM·h | Terminal t1/2 [3]: 41 h | Tmax [3]: 16 h | Cmax ([3]; read-out: Cmax (nmol/L)): 56.2 nmol/L | body weight loss [4]: good efficacy on body weight loss and food intake suppression | food intake suppression [4]: good efficacy on body weight loss and food intake suppression | Cmax ([5]; read-out: Cmax (nmol/L), single sc dose 30 nmol/kg): 120 nmol/L | AUC0-24 h ([5]; single sc dose 30 nmol/kg): 2.1637 µM·h | Terminal t1/2 ([5]; single sc dose 30 nmol/kg): 15.9 h | Tmax ([5]; single sc dose 30 nmol/kg): 16.0 h
